Patent US20220125837A1, “METHODS FOR CONTROLLED ELIMINATION OF THERAPEUTIC CELLS” (Bellicum Pharmaceuticals, Inc., priority 2014, published 2022)

Test system: HEK293T/16 cells
Assay: Secreted alkaline phosphatase (SEAP) surrogate killing assay of iCasp9 mutants
Type: cell-based, human
Settings: for basal activity, in words: SEAP assay without AP1903, relative to wild type Caspase-9; for relative SEAP activity Units (basal activity): no AP1903
Description: Early passage HEK293T/16 cells (ATCC, Manassas, Va.) were maintained in IMDM, GlutaMAX™ (Life Technologies, Carlsbad, Calif.) supplemented with 10% FBS, 100 U/mL penicillin, and 100 U/mL streptomycin until transfection in a humidified, 37° C., 5% CO2/95% air atmosphere. Cells in logarithmic-phase growth were transiently transfected with 800 ng to 2 μg of expression plasmid encoding iCasp9 mutants and 500 ng of an expression plasmid encoding SRα promoter driven SEAP per million cells in 15-mL conical tubes. […] GeneJammer® Transfection Reagent at a ratio of 3 μl per ug of plasmid DNA was used to transiently transfect HEK293T/16 cells in the absence of antibiotics. 100 μl or 2 mL of the transfection mixture was added to each well in 96-well or 6-well plate, respectively.
Briefly, after 65° C. heat denaturation for 45 minutes to reduce background caused by endogenous (and serum-derived) alkaline phosphatases that are sensitive to heat, 5 μl of supernatants was added to 95 μl of PBS and added to 100 μl of substrate buffer, containing 1 μl of 100 mM 4-methylumbelliferyl phosphate (4-MUP; Sigma, St. Louis, Mo.) re-suspended in 2 M diethanolamine. Hydrolysis of 4-MUP by SEAP produces a fluorescent substrate with excitation/emission (355/460 nm), which can be easily measured. […] 1000-ul of the mixture was seeded onto each well of a 96-well plate. […] For the assay, 4-methylumbelliferyl phosphate substrate was hydrolyzed by SEAP to 4-methylumbelliferon, a metabolite that can be excited with 364 nm and detected with an emission filter of 448 nm. Since SEAP is used as a marker for cell viability, reduced SEAP reading corresponds with increased iCaspase-9 activities.

Molecule	basal activity, in words	further results
D327G: chimeric modified Caspase-9 polypeptide (protein) VDGFGDVGALESLRGNADLAYILSMEPCGHCLIINNVNFCRESGLRTRTGSNIDCEKLRRRFSSLHFMVEVKGDLTAKKMVLALLELARQDHGALDCCVVVILSHGCQASHLQFPGAVYGTDGCPVSVEKIVNIFNGTSCPSLGGKPKLFFIQACGGEQKDHGFEVASTSPEDESPGSNPEPDATPFQEGLRTFGQLDAISSLPTPSDIFVSYSTFPGFVSWRDPKSGSWYVETLDDIFEQWAHSEDLQSLLLRVANAVSVKGIYKQMPGCFNFLRKKLFFKTSASRA	did not lower basal activity	–
D327K: chimeric modified Caspase-9 polypeptide (protein) VDGFGDVGALESLRGNADLAYILSMEPCGHCLIINNVNFCRESGLRTRTGSNIDCEKLRRRFSSLHFMVEVKGDLTAKKMVLALLELARQDHGALDCCVVVILSHGCQASHLQFPGAVYGTDGCPVSVEKIVNIFNGTSCPSLGGKPKLFFIQACGGEQKDHGFEVASTSPEDESPGSNPEPDATPFQEGLRTFKQLDAISSLPTPSDIFVSYSTFPGFVSWRDPKSGSWYVETLDDIFEQWAHSEDLQSLLLRVANAVSVKGIYKQMPGCFNFLRKKLFFKTSASRA	did not lower basal activity	–
L329K: chimeric modified Caspase-9 polypeptide (protein) VDGFGDVGALESLRGNADLAYILSMEPCGHCLIINNVNFCRESGLRTRTGSNIDCEKLRRRFSSLHFMVEVKGDLTAKKMVLALLELARQDHGALDCCVVVILSHGCQASHLQFPGAVYGTDGCPVSVEKIVNIFNGTSCPSLGGKPKLFFIQACGGEQKDHGFEVASTSPEDESPGSNPEPDATPFQEGLRTFDQKDAISSLPTPSDIFVSYSTFPGFVSWRDPKSGSWYVETLDDIFEQWAHSEDLQSLLLRVANAVSVKGIYKQMPGCFNFLRKKLFFKTSASRA	did not lower basal activity	–
Q328R: chimeric modified Caspase-9 polypeptide (protein) VDGFGDVGALESLRGNADLAYILSMEPCGHCLIINNVNFCRESGLRTRTGSNIDCEKLRRRFSSLHFMVEVKGDLTAKKMVLALLELARQDHGALDCCVVVILSHGCQASHLQFPGAVYGTDGCPVSVEKIVNIFNGTSCPSLGGKPKLFFIQACGGEQKDHGFEVASTSPEDESPGSNPEPDATPFQEGLRTFDRLDAISSLPTPSDIFVSYSTFPGFVSWRDPKSGSWYVETLDDIFEQWAHSEDLQSLLLRVANAVSVKGIYKQMPGCFNFLRKKLFFKTSASRA	did not lower basal activity	–
A331K: chimeric modified Caspase-9 polypeptide (protein) VDGFGDVGALESLRGNADLAYILSMEPCGHCLIINNVNFCRESGLRTRTGSNIDCEKLRRRFSSLHFMVEVKGDLTAKKMVLALLELARQDHGALDCCVVVILSHGCQASHLQFPGAVYGTDGCPVSVEKIVNIFNGTSCPSLGGKPKLFFIQACGGEQKDHGFEVASTSPEDESPGSNPEPDATPFQEGLRTFDQLDKISSLPTPSDIFVSYSTFPGFVSWRDPKSGSWYVETLDDIFEQWAHSEDLQSLLLRVANAVSVKGIYKQMPGCFNFLRKKLFFKTSASRA	did not lower basal activity	–
T317C: chimeric modified Caspase-9 polypeptide (protein) VDGFGDVGALESLRGNADLAYILSMEPCGHCLIINNVNFCRESGLRTRTGSNIDCEKLRRRFSSLHFMVEVKGDLTAKKMVLALLELARQDHGALDCCVVVILSHGCQASHLQFPGAVYGTDGCPVSVEKIVNIFNGTSCPSLGGKPKLFFIQACGGEQKDHGFEVASTSPEDESPGSNPEPDACPFQEGLRTFDQLDAISSLPTPSDIFVSYSTFPGFVSWRDPKSGSWYVETLDDIFEQWAHSEDLQSLLLRVANAVSVKGIYKQMPGCFNFLRKKLFFKTSASRA	no effect	–
F326K: chimeric modified Caspase-9 polypeptide (protein) VDGFGDVGALESLRGNADLAYILSMEPCGHCLIINNVNFCRESGLRTRTGSNIDCEKLRRRFSSLHFMVEVKGDLTAKKMVLALLELARQDHGALDCCVVVILSHGCQASHLQFPGAVYGTDGCPVSVEKIVNIFNGTSCPSLGGKPKLFFIQACGGEQKDHGFEVASTSPEDESPGSNPEPDATPFQEGLRTKDQLDAISSLPTPSDIFVSYSTFPGFVSWRDPKSGSWYVETLDDIFEQWAHSEDLQSLLLRVANAVSVKGIYKQMPGCFNFLRKKLFFKTSASRA	did not lower basal activity	–
Q328K: chimeric modified Caspase-9 polypeptide (protein) VDGFGDVGALESLRGNADLAYILSMEPCGHCLIINNVNFCRESGLRTRTGSNIDCEKLRRRFSSLHFMVEVKGDLTAKKMVLALLELARQDHGALDCCVVVILSHGCQASHLQFPGAVYGTDGCPVSVEKIVNIFNGTSCPSLGGKPKLFFIQACGGEQKDHGFEVASTSPEDESPGSNPEPDATPFQEGLRTFDKLDAISSLPTPSDIFVSYSTFPGFVSWRDPKSGSWYVETLDDIFEQWAHSEDLQSLLLRVANAVSVKGIYKQMPGCFNFLRKKLFFKTSASRA	did not lower basal activity	–
L329G: chimeric modified Caspase-9 polypeptide (protein) VDGFGDVGALESLRGNADLAYILSMEPCGHCLIINNVNFCRESGLRTRTGSNIDCEKLRRRFSSLHFMVEVKGDLTAKKMVLALLELARQDHGALDCCVVVILSHGCQASHLQFPGAVYGTDGCPVSVEKIVNIFNGTSCPSLGGKPKLFFIQACGGEQKDHGFEVASTSPEDESPGSNPEPDATPFQEGLRTFDQGDAISSLPTPSDIFVSYSTFPGFVSWRDPKSGSWYVETLDDIFEQWAHSEDLQSLLLRVANAVSVKGIYKQMPGCFNFLRKKLFFKTSASRA	did not lower basal activity	–
D327R: chimeric modified Caspase-9 polypeptide (protein) VDGFGDVGALESLRGNADLAYILSMEPCGHCLIINNVNFCRESGLRTRTGSNIDCEKLRRRFSSLHFMVEVKGDLTAKKMVLALLELARQDHGALDCCVVVILSHGCQASHLQFPGAVYGTDGCPVSVEKIVNIFNGTSCPSLGGKPKLFFIQACGGEQKDHGFEVASTSPEDESPGSNPEPDATPFQEGLRTFRQLDAISSLPTPSDIFVSYSTFPGFVSWRDPKSGSWYVETLDDIFEQWAHSEDLQSLLLRVANAVSVKGIYKQMPGCFNFLRKKLFFKTSASRA	did not lower basal activity	–
D330A-N405Q: modified Caspase-9 polypeptide having a substitution at position 330 and a substitution at position 405 (protein, UniProt P55211 1-416, looked up, variant D330A N405Q, iCasp9, fused to FKBP12 F36V domain) MDEADRRLLRRCRLRLVEELQVDQLWDALLSRELFRPHMIEDIQRAGSGSRRDQARQLIIDLETRGSQALPLFISCLEDTGQDMLASFLRTNRQAAKLSKPTLENLTPVVLRPEIRKPEVLRPETPRPVDIGSGGFGDVGALESLRGNADLAYILSMEPCGHCLIINNVNFCRESGLRTRTGSNIDCEKLRRRFSSLHFMVEVKGDLTAKKMVLALLELAQQDHGALDCCVVVILSHGCQASHLQFPGAVYGTDGCPVSVEKIVNIFNGTSCPSLGGKPKLFFIQACGGEQKDHGFEVASTSPEDESPGSNPEPDATPFQEGLRTFDQLAAISSLPTPSDIFVSYSTFPGFVSWRDPKSGSWYVETLDDIFEQWAHSEDLQSLLLRVANAVSVKGIYKQMPGCFQFLRKKLFFKTS	intermediate	relative SEAP activity Units (basal activity) (1 μg iCasp9 per million cells, higher SEAP = lower basal activity): 205772; relative SEAP activity Units (basal activity) (2 μg iCasp9 per million cells): 174366; basal activity, in words (listed as iCasp9 D330A N405Q): low to undetectable basal activity
^402GCFNF^406ISAQT: Caspase-9 polypeptide with the equivalent 5 residues from Caspase-10 (protein, UniProt P55211 1-416, looked up, variant G402I C403S F404A N405Q F406T) MDEADRRLLRRCRLRLVEELQVDQLWDALLSRELFRPHMIEDIQRAGSGSRRDQARQLIIDLETRGSQALPLFISCLEDTGQDMLASFLRTNRQAAKLSKPTLENLTPVVLRPEIRKPEVLRPETPRPVDIGSGGFGDVGALESLRGNADLAYILSMEPCGHCLIINNVNFCRESGLRTRTGSNIDCEKLRRRFSSLHFMVEVKGDLTAKKMVLALLELAQQDHGALDCCVVVILSHGCQASHLQFPGAVYGTDGCPVSVEKIVNIFNGTSCPSLGGKPKLFFIQACGGEQKDHGFEVASTSPEDESPGSNPEPDATPFQEGLRTFDQLDAISSLPTPSDIFVSYSTFPGFVSWRDPKSGSWYVETLDDIFEQWAHSEDLQSLLLRVANAVSVKGIYKQMPISAQTLRKKLFFKTS	reduced basal activity	–
N405F: chimeric modified Caspase-9 polypeptide (protein, UniProt P55211 1-416, looked up, variant N405F, fused to FKBP12 F36V dimerization domain, chimeric modified Caspase-9 polypeptide) MDEADRRLLRRCRLRLVEELQVDQLWDALLSRELFRPHMIEDIQRAGSGSRRDQARQLIIDLETRGSQALPLFISCLEDTGQDMLASFLRTNRQAAKLSKPTLENLTPVVLRPEIRKPEVLRPETPRPVDIGSGGFGDVGALESLRGNADLAYILSMEPCGHCLIINNVNFCRESGLRTRTGSNIDCEKLRRRFSSLHFMVEVKGDLTAKKMVLALLELAQQDHGALDCCVVVILSHGCQASHLQFPGAVYGTDGCPVSVEKIVNIFNGTSCPSLGGKPKLFFIQACGGEQKDHGFEVASTSPEDESPGSNPEPDATPFQEGLRTFDQLDAISSLPTPSDIFVSYSTFPGFVSWRDPKSGSWYVETLDDIFEQWAHSEDLQSLLLRVANAVSVKGIYKQMPGCFFFLRKKLFFKTS	lowered basal activity	–
